The nature of this test: Fluorescence polarization assay of binding to GD3 ganglioside-labeled liposomes. Set-up: species or system bovine. The following applies: for affinity for GD3 ganglioside relative to binding of a single benzoboroxole to Neu5Ac: compared with Ka of Table 1. The procedure: Liposomes were formed by transferring DOPC (dissolved in chloroform solution) and GD3 gangliosides (dissolved in 63:35:5 chloroform/methanol/water) to glass tubes and drying them under Ar (g) and then under vacuum. Lipids were re-suspended in 25 mM HEPES buffer, pH 7.0, containing NaCl (75 mM). The solution of lipids was mixed by vortexing for 2 min, and incubated at 37° C. for 1 h. For DOPC liposomes, DOPC was resuspended at a concentration of 5 mM. For GD3 ganglioside-labeled liposomes, DOPC and GD3 gangliosides were mixed at 3 mM and 2 mM concentrations, respectively. Large unilammelar vesicles were formed by extrusion through a 0.1-μm polycarbonate filter from Whatman (GE Healthcare, Piscataway, N.J.). This process produces a population of vesicles of near uniform size (˜100-150 nm diameter as measured by dynamic light scattering). A portion of the DOPC lipids before extrusion were aliquoted as a control.
Fluorescence polarization assays were performed using 50 nM BODIPY FL-labeled unmodified and benzoboroxole-boronated RNase A in black NBS 96-well plates (Corning Costar, Lowell, Mass.). These ribonucleases were incubated with DOPC liposomes (625 μM total lipid) or GD3 ganglioside-labeled liposomes (375 μM DOPC, 250 μM GD3 ganglioside=625 μM total lipid) in 25 mM HEPES buffer, pH 7.0, containing NaCl (75 mM) in the absence or presence of fructose (10 mM). In control wells, ribonucleases were incubated with non-extruded DOPC lipids. Fluorescence polarization at 470/535 nm with a G-factor of 1.257 was recorded after shaking the plate briefly and incubating at ambient temperature for 1 h. Control well polarization was subtracted from experimental well polarization for each ribonuclease. The assay was performed in triplicate.
The affinity of benzoboroxole-boronated RNase A for GD3 ganglioside-labeled liposomes was assessed by using serially diluted liposomes. GD3 ganglioside-labeled liposomes were serially diluted in 25 mM HEPES, pH 7.0, containing 75 mM with dilutions of 62.5 nM-1250 μM total lipid. […] Control DOPC liposomes (with no GD3 ganglioside) were likewise diluted in the same buffer, producing solutions of 62.5 nM-1250 μM total lipid. Liposomes were then incubated with 50 nM BODIPY FL-labeled benzoboroxole-boronated RNase A in the same buffer in a black NBS 96-well plate. Fluorescence polarization was recorded after shaking the plate briefly and incubating at ambient temperature for 35 min. Fluorescence polarization from GD3 ganglioside-labeled liposomes was subtracted from that from DOPC-only liposomes, thereby correcting for binding to DOPC and for changes in solution viscosity. The assay was performed in duplicate. The fraction of labeled ribonuclease bound for each sample well was calculated by dividing its polarization from the polarization of ribonucleases incubated with the highest concentration of GD3 ganglioside (set at 100% bound). The value of Kd was calculated by plotting the fraction bound against the concentration of GD3 ganglioside (see FIG. 21) and fitting the data to a binding isotherm as described in ref. [46] to give Kd=(54±11) μM.

The results in this text go back to US9732101B2, “Bioreversible boronates for delivery of molecules into cells” (WISCONSIN ALUMNI RESEARCH FOUNDATION, priority 2012, dated 2017).

B1: benzoboroxole-boronated RNase A: RNase A with 5-amino-2-hydroxymethylphenylboronic acid conjugated to protein carboxyl groups by carbodiimide condensation (conjugate, UniProt P61823 27-150, looked up)
Ribonuclease pancreatic: KETAAAKFERQHMDSSTSAASSSNYCNQMMKSRNLTKDRCKPVNTFVHESLADVQAVCSQKNVACKNGQTNCYQSYSTMSITDCRETGSSKYPNCAYKTTQANKHIIVACEGNPYVPVHFDASV
modifications: benzoboroxole conjugated to carboxyl groups
notes: RNase A with 5-amino-2-hydroxymethylphenylboronic acid conjugated to protein carboxyl groups by carbodiimide condensation
With B1, the dissociation constant Kd (BODIPY FL-labeled protein 50 nM, 25 mM HEPES buffer, pH 7.0, NaCl 75 mM) was determined as 54 ± 11 µM. Besides, the “affinity for GD3 ganglioside relative to binding of a single benzoboroxole to Neu5Ac” value is on record as about 430 fold (listed as benzoboroxole-boronated protein) and about 440 fold (listed as boronated protein). For the same molecule, the “effect of boronation on affinity for the ganglioside” value (fluorescence polarization, absence of fructose, versus unmodified RNase A) is on record as “increased the affinity”. Also, the “effect of fructose on the increased affinity for the ganglioside” value (fluorescence polarization, fructose 10 mM) is listed as “abrogated”.
